Test results as given in patent publication US20180162952A1 (AbbVie / Abbott, published 2018).
Blank lines part the entries; values can stand above or below the binder they belong to.

Columns and labels:
[1] = target: T1, PTK7 ECD Ig domains 1-2 Fc fusion (human); assay: ELISA, Ig-domain Fc fusion captured by anti-human IgG Fc
T1 construct: Tested as supernatant of transfected 293 cells
T1 chain: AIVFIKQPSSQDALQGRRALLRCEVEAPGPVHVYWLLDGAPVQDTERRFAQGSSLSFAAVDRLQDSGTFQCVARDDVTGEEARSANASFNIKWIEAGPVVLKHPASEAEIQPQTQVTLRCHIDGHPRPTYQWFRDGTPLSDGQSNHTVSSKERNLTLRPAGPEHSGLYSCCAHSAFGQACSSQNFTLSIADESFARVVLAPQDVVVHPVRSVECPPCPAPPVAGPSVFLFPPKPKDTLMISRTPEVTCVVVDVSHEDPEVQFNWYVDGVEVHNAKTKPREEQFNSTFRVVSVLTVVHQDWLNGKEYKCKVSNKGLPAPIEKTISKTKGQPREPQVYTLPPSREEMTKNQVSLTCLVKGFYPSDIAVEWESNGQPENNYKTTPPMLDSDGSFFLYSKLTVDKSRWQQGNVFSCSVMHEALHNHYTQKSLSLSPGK

murine PTK7-His [2] = target: T2, murine PTK7-His (murine, UniProt Q8BKG3 23-696, limits assumed); assay: ForteBio bio-layer interferometry, mouse PTK7-His against human PTK7-His
T2 construct: also called mouse PTK7-His; mouse PTK7
T2 sequence (looked up): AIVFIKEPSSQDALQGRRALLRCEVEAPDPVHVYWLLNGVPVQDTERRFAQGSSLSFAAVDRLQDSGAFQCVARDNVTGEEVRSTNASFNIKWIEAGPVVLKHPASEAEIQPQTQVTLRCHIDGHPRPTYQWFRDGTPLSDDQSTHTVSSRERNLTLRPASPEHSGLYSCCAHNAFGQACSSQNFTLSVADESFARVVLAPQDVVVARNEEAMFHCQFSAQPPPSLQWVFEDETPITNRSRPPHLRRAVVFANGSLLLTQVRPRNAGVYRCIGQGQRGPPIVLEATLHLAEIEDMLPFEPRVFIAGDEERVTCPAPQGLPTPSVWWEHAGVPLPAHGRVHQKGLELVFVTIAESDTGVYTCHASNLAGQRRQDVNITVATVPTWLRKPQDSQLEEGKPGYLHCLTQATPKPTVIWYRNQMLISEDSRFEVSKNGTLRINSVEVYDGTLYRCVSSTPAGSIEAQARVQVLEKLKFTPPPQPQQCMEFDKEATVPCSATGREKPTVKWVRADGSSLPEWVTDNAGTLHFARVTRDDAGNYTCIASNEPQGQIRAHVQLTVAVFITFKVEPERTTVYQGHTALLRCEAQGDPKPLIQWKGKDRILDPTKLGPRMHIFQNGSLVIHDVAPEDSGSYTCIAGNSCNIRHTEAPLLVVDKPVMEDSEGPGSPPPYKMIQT

[3] = target: T3, hPTK7-His (soluble His-tagged human PTK7 extracellular domain) (human, UniProt Q13308 31-704); assay: Biacore (superscript B); column Affinity (nM)
T3 construct: also called PTK7-ECD-His; monomeric recombinant hPTK7-His (isoform a)
T3 sequence: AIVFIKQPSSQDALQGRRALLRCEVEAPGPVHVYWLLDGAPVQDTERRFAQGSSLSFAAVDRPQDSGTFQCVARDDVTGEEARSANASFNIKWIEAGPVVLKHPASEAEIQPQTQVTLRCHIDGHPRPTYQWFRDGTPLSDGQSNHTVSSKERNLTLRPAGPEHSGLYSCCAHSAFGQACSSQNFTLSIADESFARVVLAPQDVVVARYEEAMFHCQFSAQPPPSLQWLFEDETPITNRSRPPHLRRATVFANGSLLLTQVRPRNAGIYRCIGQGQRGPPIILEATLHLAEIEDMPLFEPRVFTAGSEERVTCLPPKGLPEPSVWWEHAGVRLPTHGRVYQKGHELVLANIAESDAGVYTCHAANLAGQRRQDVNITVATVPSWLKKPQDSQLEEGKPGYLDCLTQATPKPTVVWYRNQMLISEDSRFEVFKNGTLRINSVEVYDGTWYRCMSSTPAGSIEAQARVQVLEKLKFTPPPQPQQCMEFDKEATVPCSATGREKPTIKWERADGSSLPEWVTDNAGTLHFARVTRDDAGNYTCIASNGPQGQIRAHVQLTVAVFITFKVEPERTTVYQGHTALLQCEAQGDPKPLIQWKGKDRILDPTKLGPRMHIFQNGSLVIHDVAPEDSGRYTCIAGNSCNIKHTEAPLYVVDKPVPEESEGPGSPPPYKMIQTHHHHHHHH

murine PTK7-His [4] = target: T2, murine PTK7-His; assay: ForteBio bio-layer interferometry, one antigen concentration (400 nM)

binding result [1]: binds
binding to mouse PTK7 relative to human (murine PTK7-His [2]): ~10%
Kd [3]: < 0.1 nM
B1: SC6.2.35 (antibody, V domains shown)
VH: QVQMQQSGAELMKPGASVKLSCKATGYTFTGYWIEWVKQRPGHGLEWIGEILPGSGRSNSNEKFKGKATFTADTSSNTAYMQLSSLTTEDSAIYYCARGKLSWGQGTLVTVSA
VL: DIVLTQSPASLAVSLGQRATISCRASESVDSFGNSFMHWYQQKPGQPPKLLIYAASNLGSGVPARFSGSGSGTDFSLNIHPVEEDDSAMYFCQQSKEVPRTFGGGSRLEIKR
notes: Murine monoclonal antibody from a hybridoma; also called H2.35; SC6.H2

binding result (murine PTK7-His [4]): no binding (tested: 400 nM)
Kd [3]: 5.6 nM
B2: SC6.10.2 (antibody, V domains shown)
VH: QVQLQQSGAELVRPGVSVKISCKGSGYRFTDYPIHWVKQSHAKSLEWIGIISTYYGDVTNNPKFRGKATMTVDKSSTTAYMELARLTSEDSAIYYCARNDLFAYWGQGTLVTVSA
VL: DIVMTQSQKFMSTSVGDRVNVTCKASQNVGTNVVWYQQKTGQSPKALIHSASYRYSGVPDRFTGSGSGTDFTLTLSNVQSEDLAEYFCQHYNSFPYTFGGGTKLEIKR
notes: Murine monoclonal antibody from a hybridoma; also called H10.2; H10
